Results as given in patent US20250388683A1 (VETOQUINOL, published 2025).
Read-outs that look alike come from different tables or passages of the source.

Assays:
Experiment in all cases: cell-based or functional assay
[1] = biological target: T1, canine IL-31RA expressed on HEK-Blue STAT3 canine IL-31R reporter cells (with canine OSMR) (canine)
[2] = biological target: T1, canine IL-31RA expressed on HEK-Blue …; remark: listed apart in the source
[3] = biological target: T1, canine IL-31RA expressed on HEK-Blue …; remark: listed apart in the source
[4] = biological target: T1, canine IL-31RA expressed on HEK-Blue …; remark: listed apart in the source
[5] = biological target: T1, canine IL-31RA expressed on HEK-Blue …; remark: listed apart in the source
[6] = biological target: T1, canine IL-31RA expressed on HEK-Blue …; remark: listed apart in the source
[7] = biological target: T1, canine IL-31RA expressed on HEK-Blue …; remark: listed apart in the source
[8] = biological target: T1, canine IL-31RA expressed on HEK-Blue …; remark: listed apart in the source
[9] = biological target: T1, canine IL-31RA expressed on HEK-Blue …; remark: listed apart in the source
[10] = biological target: T1, canine IL-31RA expressed on HEK-Blue …; remark: listed apart in the source
[11] = biological target: T1, canine IL-31RA expressed on HEK-Blue …; remark: listed apart in the source

B1: scFv-VTQ2101-LH-Fc (scFv-VTQ2101-LH-GS18-Canine IgG2B-LALAPG-Fc) (Fc fusion)
scFv: RIVMTQSPGSLAGSVGESVSINCKSSQSVTNDLTWYQQKPGEAPKVLITYASQRYTGVPARFSGSGYGTDFTLTINNLQAEDVGDYFCQQDYASPFTFGQGTKLEIKGSTSGGGSGGGSGGGGSSEVTLQESGPGLVKPSQTLSLTCVASGFSIKSSFIHWLRQRPGRGLEWIGRIDPAFGATEYNPAFQGRFSITADTAKNQASLQLSSMTTEDSAVYYCARYHYAASHFDAWGQGTLVTVSSPKRENGRVPRPPDCPKCPAPEAAGGPSVFIFPPKPKDTLLIARTPEVTCVVVDLDPEDPEVQISWFVDGKQMQTAKTQPREEQFNGTYRVVSVLPIGHQDWLKGKQFTCKVNNKALGSPIERTISKARGQAHQPSVYVLPPSREELSKNTVSLTCLIKDFFPPDIDVEWQSNGQQEPESKYRTTPPQLDEDGSYFLYSKLSVDKSRWQRGDTFICAVMHEALHNHYTQESLSHSPG
With B1 the “IC50 (read off the curve); STAT3-SEAP reporter, canine IL-31 stimulation” value (from here on “IC50 (read off the curve)”) [1] was 1 to 10 nM and the “IC50 ratio (IC50 candidate/IC50 VTQ2101)” value [2] was 2.2 ratio.

B2: scFv-VTQ2101-LHλcap-Fc (scFv-VTQ2101-LHλcap-GS18-Canine IgG2B-LALAPG-Fc) (Fc fusion)
scFv: RIVMTQSPGSLAGSVGESVSINCKSSQSVTNDLTWYQQKPGEAPKVLITYASQRYTGVPARFSGSGYGTDFTLTINNLQAEDVGDYFCQQDYASPFTFGGGTKLTVLGGSTSGGGSGGGSGGGGSSEVTLQESGPGLVKPSQTLSLTCVASGFSIKSSFIHWLRQRPGRGLEWIGRIDPAFGATEYNPAFQGRFSITADTAKNQASLQLSSMTTEDSAVYYCARYHYAASHFDAWGQGTLVTVSSPKRENGRVPRPPDCPKCPAPEAAGGPSVFIFPPKPKDTLLIARTPEVTCVVVDLDPEDPEVQISWFVDGKQMQTAKTQPREEQFNGTYRVVSVLPIGHQDWLKGKQFTCKVNNKALGSPIERTISKARGQAHQPSVYVLPPSREELSKNTVSLTCLIKDFFPPDIDVEWQSNGQQEPESKYRTTPPQLDEDGSYFLYSKLSVDKSRWQRGDTFICAVMHEALHNHYTQESLSHSPG
With B2 the “IC50 (read off the curve)” value [3] was ~1 nM and the “IC50 ratio (IC50 candidate/IC50 VTQ2101)” value [2] was 1.7 ratio.

B3: scFv-Fc-VTQ2201 (scFv-VTQ2201-HLλcap-GS18-Mouse IgG2A-LALAPG-Fc) (Fc fusion)
scFv: EVQLQQSGAELVKPGASVKLSCTASGFNIKDSFIHWLKQRPEQGLEWIGRIDPANGNTEYDPNFQGKVTITADTSSNTAYLQLSSLTSEDTAVYYCARYYYGNSHFDAWGQGTTLTVSSGSTSGGGSGGGSGGGGSSRIVMNQTPKFLPISAGDRVIITCKASQSVTNDVTWYQQKPGQSPKVLIHYASNRYTGVPDRFTGSGYGTDFTFTISTVQAEDLAVYFCQQDYSSPFTFGSGTKLTVLGPRGPTIKPCPPCKCPAPNAAGGPSVFIFPPKIKDVLMISLSPIVTCVVVDVSEDDPDVQISWFVNNVEVHTAQTQTHREDYNSTLRVVSALPIQHQDWMSGKEFKCKVNNKDLGAPIERTISKPKGSVRAPQVYVLPPPEEEMTKKQVTLTCMVTDFMPEDIYVEWTNNGKTELNYKNTEPVLDSDGSYFMYSKLRVEKKNWVERNSYSCSVVHEGLHNHHTTKSFSRTPGK
B3 was tested, and the “IC50 (read off the curve)” value [4] was ~1 nM and the “IC50 ratio (IC50 candidate/IC50 VTQ2101)” value [5] was 1 ratio.

B4: scFv-HLλcap-Fc-VTQ2102 (scFv-VTQ2102-HLλcap-GS18-Canine IgG2B-LALAPG-Fc) (Fc fusion)
scFv: EVTLQESGPGLVKPSQTLSLTCVASGFSIKSSFIHWLRQRPGRGLEWIGRIDPAFGATEYNPAFQGRFSITADTAKNQASLQLSSMTTEDSAVYYCARYHYAASHFDAWGQGTLVTVSSGSTSGGGSGGGSGGGGSSRIVMTQSPGSLAGSVGESVSINCKSSQSVTNDLTWYQQKPGEAPKVLITYASQRYTGVPARFSGSGYGTDFTLTINNLQAEDVGDYFCQQDYASPFTFGGGTKLTVLGPKRENGRVPRPPDCPKCPAPEAAGGPSVFIFPPKPKDTLLIARTPEVTCVVVDLDPEDPEVQISWFVDGKQMQTAKTQPREEQFNGTYRVVSVLPIGHQDWLKGKQFTCKVNNKALGSPIERTISKARGQAHQPSVYVLPPSREELSKNTVSLTCLIKDFFPPDIDVEWQSNGQQEPESKYRTTPPQLDEDGSYFLYSKLSVDKSRWQRGDTFICAVMHEALHNHYTQESLSHSPG
With B4 the “IC50 (read off the curve)” value [6] was ~1 nM and the “IC50 ratio (IC50 candidate/IC50 VTQ2101)” value [2] was 1.5 ratio.

B5: 8D3-VH-N/8D3-VL-Ev2 caninized antibody (antibody, V domains shown)
VH: EVTLQESGPGLVKPSQTLSLTCVASGFSIKSSFIHWLRQRPGRGLEWIGYIDPLQGGTEYNPVFQGRISITADTAKNQVSLQLSSMTTEDTAVYYCARYYYAQSHFDAWGQGTLVTVSS
VL: RIVMTQSPGSLAGSVGESVSINCKSSQSVTNDVTWYQQKPGEAPKVLIHYASQRYSGVPARFSGSGYGTDFTLTINNLQAEDVGDYFCQQDYASPFTFGQGTKLEIK
B5 was tested, and the “Mean IC50 (nM) (n = 3), HEK-Blue cell-based SEAP assay” value (“Mean IC50 (nM)” below) [7] was 0.54 nM.

B6: 8D3-clone7v2-VH/8D3-clone 7-VL caninized antibody (antibody, V domains shown)
VH: EVTLQESGPGLVKPSQTLSLTCVASGFSIKSSFIHWLRQRPGRGLEWIGRIDPLQGGTEYNPVFQGRISITADTTKNQVSLQLSSMTTEDTAVYYCARYYYAQSHFDAWGQGTLVTVSS
VL: RIVMTQSPGSLAGSAGESVSINCKSSQSVTNDLTWYQQKPGEAPKVLIHYASQRYTGVPARFSGSGYGTDFTLTINNLQAEDVGVYFCQQDYSSPFTFGQGTKLEIK
B6 was tested, and the “Mean IC50 (nM)” value [7] was 0.44 nM.

B7: 8D3-VH-518H/8D3-VL-A caninized antibody (antibody, V domains shown)
VH: EVTLQESGPGLVKPSQTLSLTCVASGFSIKSSFIHWLRQRPGRGLEWIGYIDPLQGGTEYNPVFQGRLSITADTAKNQVSLQLSSMTTEDTAVYYCARYHYATSHFDAWGQGTLVTVSS
VL: RIVMTQSPGSLAGSAGESVSINCKASQSVTNDVTWYQQKPGERPKVLIHYASNRYTGVPARFSGSGSGTDFTFTINNLQAEDVGDYFCQQDYSSPFTFGQGTKLEIK
With B7 the “Mean IC50 (nM)” value [7] was 0.48 nM.

B8: 8D3-VH-518/8D3-VL-Ev2 caninized antibody (antibody, V domains shown)
VH: VTLQESGPGLVKPSQTLSLTCVASGFSIKDSFIHWLRQRPGRGLEWIGYIDPLQGNTEYDPVFQGRLSITADTAKNQVSLQLSSMTTEDTAVYYCARYYYARSHFDAWGQGTLVTVSS
VL: RIVMTQSPGSLAGSVGESVSINCKSSQSVTNDVTWYQQKPGEAPKVLIHYASQRYSGVPARFSGSGYGTDFTLTINNLQAEDVGDYFCQQDYASPFTFGQGTKLEIK
B8 was tested, and the “Mean IC50 (nM)” value [7] was 0.57 nM.

B9: 8D3-VH-518/8D3-VL-A caninized antibody (antibody, V domains shown)
VH: VTLQESGPGLVKPSQTLSLTCVASGFSIKDSFIHWLRQRPGRGLEWIGYIDPLQGNTEYDPVFQGRLSITADTAKNQVSLQLSSMTTEDTAVYYCARYYYARSHFDAWGQGTLVTVSS
VL: RIVMTQSPGSLAGSAGESVSINCKASQSVTNDVTWYQQKPGERPKVLIHYASNRYTGVPARFSGSGSGTDFTFTINNLQAEDVGDYFCQQDYSSPFTFGQGTKLEIK
With B9 the “Mean IC50 (nM)” value [7] was 0.54 nM.

B10: scFab-Fc-VTQ2101 (scFab-VTQ2101-HLλcap-GS18-Canine IgG2B-LALAPG-Fc) (Fc fusion)
chain: RIVMTQSPGSLAGSVGESVSINCKSSQSVTNDLTWYQQKPGEAPKVLITYASQRYTGVPARFSGSGYGTDFTLTINNLQAEDVGDYFCQQDYASPFTFGQGTKLEIKRNDAQPAVYLFQPSPDQLHTGSASVVCLLNSFYPKDINVKWKVDGVIQDTGIQESVTEQDKDSTYSLSSTLTMSSTEYLSHELYSCEITHKSLPSTLIKSFQRSECGGSSGSGSGSTGTSSSGTGTSAGTTGTSASTSGSGSGGGGGSGGGGSAGGEVTLQESGPGLVKPSQTLSLTCVASGFSIKSSFIHWLRQRPGRGLEWIGRIDPAFGATEYNPAFQGRFSITADTAKNQASLQLSSMTTEDSAVYYCARYHYAASHFDAWGQGTLVTVSSASTTAPSVFPLAPSCGSTSGSTVALACLVSGYFPEPVTVSWNSGSLTSGVHTFPSVLQSSGLYSLSSMVTVPSSRWPSETFTCNVAHPASKTKVDKPVPKRENGRVPRPPDCPKCPAPEAAGGPSVFIFPPKPKDTLLIARTPEVTCVVVDLDPEDPEVQISWFVDGKQMQTAKTQPREEQFNGTYRVVSVLPIGHQDWLKGKQFTCKVNNKALGSPIERTISKARGQAHQPSVYVLPPSREELSKNTVSLTCLIKDFFPPDIDVEWQSNGQQEPESKYRTTPPQLDEDGSYFLYSKLSVDKSRWQRGDTFICAVMHEALHNHYTQESLSHSPG
B10 was tested, and the “IC50 (read off the curve)” value [8] was ~0.8 nM and the “IC50 ratio (IC50 candidate/IC50 VTQ2101)” value [2] was 1.3 ratio.

B11: scFv-Fc-VTQ2202 (scFv-VTQ2202-HLλcap-GS18-MOUSE IgG2A-LALAPG-Fc) (Fc fusion)
scFv: EVQLQQSGAELVKPGASVKLSCTASGFNIKSSFIHWLKQRPEQGLEWIGRIDPAFGATEYNPAFQGKVTITADTSSNTAYLQLSSLTSEDTAVYYCARYHYAASHFDAWGQGTTLTVSSGSTSGGGSGGGSGGGGSSRIVMNQTPKFLPISAGDRVIITCKSSQSVTNDLTWYQQKPGQSPKVLIHYASQRYTGVPDRFTGSGYGTDFTFTISTVQAEDLAVYFCQQDYASPFTFGSGTKLTVLGPRGPTIKPCPPCKCPAPNAAGGPSVFIFPPKIKDVLMISLSPIVTCVVVDVSEDDPDVQISWFVNNVEVHTAQTQTHREDYNSTLRVVSALPIQHQDWMSGKEFKCKVNNKDLGAPIERTISKPKGSVRAPQVYVLPPPEEEMTKKQVTLTCMVTDFMPEDIYVEWTNNGKTELNYKNTEPVLDSDGSYFMYSKLRVEKKNWVERNSYSCSVVHEGLHNHHTTKSFSRTPGK
B11 was tested, and the “IC50 ratio (IC50 candidate/IC50 VTQ2101)” value [5] was 1 ratio and the “IC50 (read off the curve)” value [9] was ~0.8 nM.

B12: monoclonal anti-cIL-31RA antibody 28F12 (antibody, V domains shown)
VH: EVQLVESDGGLAQPGRSLKLSCAASGFTFSDYYMAWVRQAPTKGLEWVATISYDGSSTYYRDSVRGRFTISRDNAKSTLYLQMDSLRSEDTATYYCARGPLTDWAPNWFAYWGQGTLVTVSS
VL: DIQMTQSPASLSASLGETVTIQCQTSEDIYSGLAWYQQKPGKSPQFLIYGASRLEDGVPSRFSGSGSGTQYSLKISSMQTEDEGVYFCQQGLKYPNTFGAGTKLELK
B12 was tested, and the “IC50 ratio (IC50 candidate/IC50 VTQ2101)” value [10] was 5.6 ratio and the “IC50 (read off the curve)” value [11] was ~0.7 nM.
